These results are taken from publication PMC12654650, “Characterization of a β-Galactosidase from Kosakonia oryzendophytica and Its Heterologous Expression in Bacillus subtilis for Galactooligosaccharides Production” (Molecules, 2025).

Substrate in the data set: O=[N+]([O-])c1ccccc1O[C@@H]1O[C@H](CO)[C@H](O)[C@H](O)[C@H]1O
Description: purified protein. Format: biochemical, Kosakonia oryzendophytica. The conditions noted are these: pH 7.0, 100 mM HEPES, 50 °C, 5 min, ONPG 0.3-50 mM, fit called substrate inhibition curve (Figure S4).

B1: Koor β-gal (Kosakonia oryzendophytica) (protein)
chain: MSASALRTLISRRDWENPVITHWHRLPAHAPMRSWRDEQAARDNAPSSAHRLLNGEWYFRFFPAPEAVPERWITEEYDDAVAMPVPSNWQMQGFDTPIYTNVTYPIPVNPPFVPQQNPTGCYSLTFEMTAQALAQGQTRIVFDGVNSAFYLWCNGQWIGYSQDSRLPAEFDLSDVLHVGQNRLAVMVLRWCDGSYLEDQDMWRMSGIFRDVSLQHKPATHIADFHHTTELNAEFTHGQVKVDLRLAGEYSACQVAVALWHGEEKIAQAQQAPGSAIVDERGAWAERLSVSLPVSDPLLWSAETPHLYRLTLTLLDGLGNVLEVEACNVGFRKVEISNGLLKLNGKPLLIRGVNRHEHHPENGQAIDEATMRRDIELMKQHNFNAVRCSHYPNHPLWYSLCDEYGLYVVDEANIETHGMTPMSRLSDDPQWLPAMSERVTRMVLRDRNHPSIIIWSLGNESGHGASHDALYRWLKTTDPTRPVQYEGGGANTAATDIICPMYARVDEDQPFPAVPKWSIKKWIGLPDETRPLILCEYAHAMGNSFGGFAKYWQAFRETPRLQGGFVWDWVDQALTKTDTNGQSFWAYGGDFGDTPNDRQFCMNGLVFPDRTPHPALYEAQRAQQFFQFRLLNTTPLVIEVESEYLFRTTDNEYLRWAVVRDGLVLAQGEITLAIAPQGKQQIALTIPELESAPGEVWLNVDVYQKAATPWSDAEHHCAWDQWRLPSPLFIAPRKTVSSRPMLVVSEEEYVIHHRNQRWQFCRRSGDLIQWWRDEQPTLLTPLRDSFARAPLDNDIGISEVTRIDPNAWVERWKAAGMYDLRAELLACEVEEHAADIVVTTTHCWSGAGKTGFVSHKRWRIDGEGVLHGEVDVQVATDIPPPARIGLVCQLSEVQASVSWLGLGPHENYPDRKLAARQGRWTLPLAALHTPYIFPGENGLRCETRELHYGAHHLNGDFHFSLGRYSDKQLRETTHHHLLREEAGCWLHLDAFHMGVGGDDSWSPSVSPEFILRSERVRYAFCWRQD
notes: C-terminal 6xHis tag, pET-28a(+) NcoI/XhoI, E. coli BL21(DE3), Ni-NTA; synthetic gene
With B1, the Km – broadly, the concentration of substrate that gives half-maximal velocity – was 6.0 ± 0.3 mM; the catalytic constant (kcat) (in general, the number of substrate molecules converted per active site and unit of time at saturation) amounted to 732.7 ± 43.5 s⁻¹.
